± gives the uncertainty stated by the source.
Test: self-splicing fitness, log relative to wild type (ln ratio); higher = more splicing; Tetrahymena group I intron in knt gene, E. coli kanamycin selection, DiMSum; sequences stand for … in CUCUCU…GGAGGGAAAAGUUAUCAGGCAUGCACCUGGUAGCUAGUCUUUAAACCAAUAGAUUGCAUCGGUUUAAAAGGCAAGACCGUCAAAUUGCGGGAAAGGGGUCAACAGCCGUUCAGUACCAAGUCUCAGGGGAAACUUUGAGAUGGCCUUGCAAAGGGUAUGGUAAUAAGCUGACGGACAUGGUCCUAACCACGCAGCCAAGUCCUAAGUCAACAGAUCUUCUGUUGAUAUGGAUGCAGUUCACAGACUAAAUGUCGGUCGGGGAAGAUGUAUUCUUCUCAUAAGAUAUAGUCGGACCUCUCCUUAAUGGGAGCUAGCGGAUGAAGUGAUGCAACACUGGAGCCGCUGGGAACUAAUUUGUAUGCGAAAGUAUAUUGAUUAGUUUUGGAGUACUCGUGGUCG
How it was run: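 DiMSum derived fitness as the error-weighted combination of fold changes across replicates, kanamycin versus no kanamycin, normalised to wild type. E. coli BL21(DE3) held the library, which randomised all eight P1ex-region intron nucleotides within the knt kanamycin-resistance gene on pET-22b(+). Six replicate transformations grew overnight at 37°C or 30°C on LB agar with or without 25 μg/mL kanamycin, also containing 100 μg/mL carbenicillin, 50 μM IPTG and 0.2% rhamnose, and pooled colonies were amplicon-sequenced on an Illumina HiSeq 2500.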

Sequence	self-splicing fitness (ln) (30 °C)	self-splicing fitness (ln) (37 °C)
GUAUAGCAAUAUUACGCGAA	-2.01 ± 0.36	-0.808 ± 0.23
AGUAAGCAAUAUUACGGACA	-0.314 ± 0.091	-0.393 ± 0.11
AGUUAGCAAUAUUACGGUAG	-3.77 ± 0.3	-2.11 ± 0.34
CCGCAGCAAUAUUACGGGGC	-3.25 ± 0.24	-2.21 ± 0.28
UACAAGCAAUAUUACGGGUG	-0.523 ± 0.04	-0.55 ± 0.054
CCAUAGCAAUAUUACGUCGG	-3.15 ± 0.19	-2.02 ± 0.29
CCGGAGCAAUAUUACGGGAG	-3.98 ± 0.27	-2.13 ± 0.26
ACACAGCAAUAUUACGCGGA	-1.98 ± 0.072	-1.1 ± 0.07
UGAUAGCAAUAUUACGUAAU	-4.31 ± 0.46	-1.99 ± 0.21
GUAUAGCAAUAUUACGUCCC	-1.75 ± 0.12	-0.594 ± 0.16
GGGUAGCAAUAUUACGACAA	-0.573 ± 0.24	-0.263 ± 0.21
CCUCAGCAAUAUUACGUAAU	-4.03 ± 0.21	-2.74 ± 0.22
CCUAAGCAAUAUUACGACGU	-3.61 ± 0.29	-2.17 ± 0.22
AUCCAGCAAUAUUACGAGUC	-2.87 ± 0.17	-2.01 ± 0.21
UGCAAGCAAUAUUACGGUAC	-4.35 ± 0.39	-2.38 ± 0.21
GGACAGCAAUAUUACGGGUU	-3.03 ± 0.11	-2.46 ± 0.21
ACGCAGCAAUAUUACGUUAU	-3.13 ± 0.12	-2.12 ± 0.15
UAACAGCAAUAUUACGACCU	-0.404 ± 0.098	0.106 ± 0.11
GACGAGCAAUAUUACGCAUG	-3.07 ± 0.25	-1.61 ± 0.19

Sequence	self-splicing fitness (ln) (30 °C)	self-splicing fitness (ln) (37 °C)
UGUUAGCAAUAUUACGUUAA	-1.85 ± 0.27	-0.838 ± 0.15
UCCGAGCAAUAUUACGCGAA	-2.94 ± 0.4	-1.84 ± 0.4
GAAUAGCAAUAUUACGUACC	-0.757 ± 0.19	-0.37 ± 0.3
GGACAGCAAUAUUACGAGGU	-3.35 ± 0.21	-2.12 ± 0.14
UUUGAGCAAUAUUACGGGGG	-1.96 ± 0.38	
UUAAAGCAAUAUUACGCAUA	-0.633 ± 0.072	0.164 ± 0.11
UGGCAGCAAUAUUACGCAGA	-1.21 ± 0.14	-0.916 ± 0.12
GGCGAGCAAUAUUACGAUGC	-1.04 ± 0.16	-1.43 ± 0.26
CACGAGCAAUAUUACGAGGU	-4.07 ± 0.28	-3.23 ± 0.28
GUAUAGCAAUAUUACGCGUU	-1.21 ± 0.11	-1.33 ± 0.17
UGGGAGCAAUAUUACGAGAU	-1.91 ± 0.27	-2.04 ± 0.47
AAGAAGCAAUAUUACGUGAC	-3.34 ± 0.15	-1.67 ± 0.11
CCCAAGCAAUAUUACGGCUA	-4.01 ± 0.42	-3.19 ± 0.32
CAAAAGCAAUAUUACGCUCC	-2.23 ± 0.22	-1.99 ± 0.29
CCCUAGCAAUAUUACGCGAA	-1.83 ± 0.2	-2.2 ± 0.23
AUGCAGCAAUAUUACGCGCG	-0.941 ± 0.1	-0.349 ± 0.1
GAUAAGCAAUAUUACGGUAC	-1.92 ± 0.12	-0.383 ± 0.17
GCCAAGCAAUAUUACGCGAA	-1.2 ± 0.1	-0.257 ± 0.11
